Square brackets hold non-standard residues; d marks the D form. Peptide text beside a SMILES is read from it. * marks the point of attachment. F2Pmp = N[C@@H](Cc1ccc(C(F)(F)P(=O)(O)O)cc1)C(=O)O; Bz = O=C(c1ccccc1)*
How the values were obtained:
[1] = biological target: T1, human recombinant GST-PTP1B, non-mutated (Cys215) (Homo sapiens, UniProt P18031); assay: GST-PTP1B SPA binding assay with non-mutated (Cys215) enzyme; conditions: read-out: % inhibition, Non-Mutated
T1 construct: Human recombinant PTP1B, containing amino acids 1-320; made in house; host or cells: E. coli
T1 sequence (P18031 1-320): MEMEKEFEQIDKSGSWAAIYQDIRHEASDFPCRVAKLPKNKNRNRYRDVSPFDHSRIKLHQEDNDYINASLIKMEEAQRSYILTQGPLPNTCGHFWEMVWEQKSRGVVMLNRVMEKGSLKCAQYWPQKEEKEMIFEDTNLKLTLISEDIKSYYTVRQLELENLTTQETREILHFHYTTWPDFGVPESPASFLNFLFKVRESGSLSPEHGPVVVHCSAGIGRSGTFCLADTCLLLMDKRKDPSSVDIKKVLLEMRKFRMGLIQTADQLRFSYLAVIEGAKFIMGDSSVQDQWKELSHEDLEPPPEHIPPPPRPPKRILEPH
Description: (§1) ID No. 7) contains active site serine(215).
(§2) IC50 Binding Assay Protocol
(§3) To each well is added the following solutions @ 25° C. in the following chronological order:
(§4) 1. 110 μl of assay buffer.
(§5) 3. 10 μl. of testing compound in DMSO at 10 different concentrations in serial dilution (final DMSO, about 5% v/v) in duplicate @ 25° C.
(§6) 4. 10 μl. of 3.75 μg/ml purified human recombinant GST-PTP1B in enzyme dilution buffer.
(§7) 5. The plate is shaken for 2 minutes.
(§8) 6. 10 μl. of 0.3 μg/ml anti-glutathione S-transferase (anti-GST) rabbit IgG (Molecular Probes) diluted in antibody dilution buffer @ 25° C.
(§9) 7. The plate is shaken for 2 minutes.
(§10) 8. 50 μl. of protein A-PVT SPA beads (Amersham) @ 25° C.
(§11) 9. The plate is shaken for 5 minutes. The binding signal is quantified on a Microbeta 96-well plate counter.
(§12) 10. The non-specific signal is defined as the enzyme-ligand binding in the absence of anti-GST antibody.
(§13) 11. 100% binding activity is defined as the enzyme-ligand binding in the presence of anti-GST antibody, but in the absence of the testing ligands with the non-specific binding subtracted.
(§14) 12. Percentage of inhibition is calculated accordingly.
(§15) 13. IC50 value is approximated from the non-linear regression fit with the 4-parameter/multiple sites equation (described in: "Robust Statistics", New York, Wiley, by P. J. Huber (1981) and reported in nM units.

[2] = biological target: T2, human recombinant GST-PTP1B, mutated (Ser215) (Homo sapiens, UniProt P18031, C215S); assay: GST-PTP1B SPA binding assay with mutated enzyme (Ser215)
T2 construct: Human recombinant PTP1B, containing amino acids 1-320; made in house; host or cells: bacteria (E. coli DH5alpha named for the transformation)
T2 sequence (P18031 1-320 C215S): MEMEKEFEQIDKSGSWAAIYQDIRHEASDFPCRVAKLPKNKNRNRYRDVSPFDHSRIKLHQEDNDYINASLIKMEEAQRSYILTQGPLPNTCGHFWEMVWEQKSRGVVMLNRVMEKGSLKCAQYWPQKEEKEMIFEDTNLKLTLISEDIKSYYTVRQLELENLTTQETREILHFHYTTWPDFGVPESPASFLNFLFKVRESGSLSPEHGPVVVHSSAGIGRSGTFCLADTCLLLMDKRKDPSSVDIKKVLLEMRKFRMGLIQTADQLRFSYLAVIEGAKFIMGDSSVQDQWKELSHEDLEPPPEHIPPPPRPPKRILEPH
Description: as §1, §2, §3, §4, §5, §6, §7, §8, §9, §10, §11, §12, §13, §14, §15

PTP1B = assay: inhibition of PTP1B; type: biochemical; conditions: type of constant not stated
[3] = biological target: GST-PTP1B, mutated (Ser215): GST-PTP-1B Cys215Ser mutant, human PTP1B amino acids 1-320 fused to GST (human); assay: SPA competition binding assay against tritiated BzN-EJJ-CONH2, GST-PTP1B mutated (Ser215)
[4] = biological target: GST-PTP1B, non-mutated (Cys215): human recombinant PTP1B amino acids 1-320 fused to GST enzyme (glutathione S-transferase) (human); assay: SPA competition binding assay against tritiated BzN-EJJ-CONH2, GST-PTP1B non-mutated (Cys215)
[5] = biological target: PTP1B tyrosine phosphatase (construct not stated) (human)
[6] = biological target: T3, GST-PTP1B, non-mutated (Cys215): human recombinant PTP1B amino acids 1-320 fused to GST enzyme (glutathione … (human)); assay: SPA competition binding assay against tritiated BzN-EJJ-CONH2, GST-PTP1B non-mutated (Cys215)
T3 chain: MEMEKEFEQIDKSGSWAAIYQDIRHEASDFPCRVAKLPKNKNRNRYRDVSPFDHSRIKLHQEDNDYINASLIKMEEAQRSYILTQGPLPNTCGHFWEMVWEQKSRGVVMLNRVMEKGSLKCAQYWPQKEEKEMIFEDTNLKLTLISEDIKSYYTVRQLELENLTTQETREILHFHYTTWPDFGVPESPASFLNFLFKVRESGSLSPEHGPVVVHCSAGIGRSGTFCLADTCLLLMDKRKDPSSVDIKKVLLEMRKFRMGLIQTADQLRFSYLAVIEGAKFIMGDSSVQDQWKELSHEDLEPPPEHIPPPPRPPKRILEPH
Description: 1. 110 μl of assay buffer. 2. […] 3. 10 μl. of testing compound in DMSO at 10 different concentrations in serial dilution (final DMSO, about 5% v/v) in duplicate @ 25° C. 4. 10 μl. of 3.75 μg/ml purified human recombinant GST-PTP1B in enzyme dilution buffer. 5. The plate is shaken for 2 minutes. 6. 10 μl. of 0.3 μg/ml anti-glutathione S-transferase (anti-GST) rabbit IgG (Molecular Probes) diluted in antibody dilution buffer @ 25° C. 7. The plate is shaken for 2 minutes. 8. 50 μl. of protein A-PVT SPA beads (Amersham) @ 25° C. 9. The plate is shaken for 5 minutes. The binding signal is quantified on a Microbeta 96-well plate counter. 10. The non-specific signal is defined as the enzyme-ligand binding in the absence of anti-GST antibody. 11. 100% binding activity is defined as the enzyme-ligand binding in the presence of anti-GST antibody, but in the absence of the testing ligands with the non-specific binding subtracted. 12. Percentage of inhibition is calculated accordingly.

[7] = phosphatase activity of expressed PTP-1B constructs; type: biochemical; conditions: expressed (E. coli for GST-PTP-1B) protein
Text: The full length human PTP-1B cDNA sequence (published in J. Chernoff et al., PNAS, USA, supra) cloned into a PET vector was obtained from Dr. Raymond Erickson (Harvard University). The PTP-1B CDNA sequence encoding amino acids 1-320 (Seq. ID No. 1) was amplified by PCR using the full length sequence as template. […] The amplified fragment was cloned into pCR2 (Invitrogen) and sequenced to insure that no sequence errors had been introduced by Taq polymerase during the amplification. This sequence was released from pCR2 by a Bam HI/Eco RI digest and the PTP-1B cDNA fragment ligated into the GST fusion vector pGEX-2T (Pharmacia) that had been digested with the same enzymes. […] This same 1-320 PTP-1B sequence (Seq. ID No. 1) was then cloned into the expression vector pFLAG-2, where FLAG is the octa-peptide […] This was done by releasing the PTP-1B sequence from the pGEX-2T vector by Nco I/Eco RI digest, filling in the ends of this fragment by Klenow and blunt-end ligating into the blunted Eco RI site of pFLAG2. Site-directed mutagenesis was performed on pFLAG2-PTP-1B plasmid using the Chameleon (Stratagene) double-stranded mutagenesis kit from Stratagene, to replaced the active-site Cys-215 with serine. The mutagenesis was carried out essentially as described by the manufacturer and mutants identifed by DNA sequencing. […]

[8] = read-out: % inhibition, Mutated

COc1cc(OC)c(OC)cc1CCN=CCc1ncc[nH]1 [Amine]
inhibition at 2 µM [1]: 67% | inhibition at 2 µM [2, 8]: 10%

NC(=O)[C@H](Cc1ccc(C(F)(F)P(=O)(O)O)cc1)NC(=O)[C@H](Cc1ccc(C(F)(F)P(=O)(O)O)cc1)NC(=O)[C@H](CCC(=O)O)NC(=O)c1ccccc1 [BzN-EJJ-CONH2, N-Benzoyl-L-glutamyl-[4-phosphono(difluoromethyl)]-L-phenylalanyl-[4-phosphono(difluoromethyl)]-L-phenylalanineamide] (Bz-Glu-[F2Pmp]-[F2Pmp]-NH2)
binding of substrate analog to mutated enzyme ([2]; mutated enzyme, truncated, amino acids 1-320): high affinity | active inhibitor of PTP1B (PTP1B): 5 nM

OO [Hydrogen peroxide]
inhibition at 83 µM [1]: 90% | inhibition at 83 µM [2, 8]: 0%

DADE(F2PMP)L hexapeptide
IC50 [3]: 100 nM | IC50 [4]: 400 nM

Bz-Glu-[F2Pmp]-[F2Pmp]-NH2
inhibitor of PTP1B [5]: 5 nM | IC50 [3]: 8 nM | IC50 [6]: 14 nM

B1: GST-PTP-1B fusion protein: PTP-1B amino acids 1-320 fused to GST, expressed in E. Coli (protein)
chain: MEMEKEFEQIDKSGSWAAIYQDIRHEASDFPCRVAKLPKNKNRNRYRDVSPFDHSRIKLHQEDNDYINASLIKMEEAQRSYILTQGPLPNTCGHFWEMVWEQKSRGVVMLNRVMEKGSLKCAQYWPQKEEKEMIFEDTNLKLTLISEDIKSYYTVRQLELENLTTQETREILHFHYTTWPDFGVPESPASFLNFLFKVRESGSLSPEHGPVVVHCSAGIGRSGTFCLADTCLLLMDKRKDPSSVDIKKVLLEMRKFRMGLIQTADQLRFSYLAVIEGAKFIMGDSSVQDQWKELSHEDLEPPPEHIPPPPRPPKRILEPH
phosphatase activity [7]: active protein tyrosine phosphatase activity

B2: FLAG-PTP-1B Cys215Ser mutant: FLAG-tagged PTP-1B with active-site Cys-215 replaced with serine (Seq. ID No. 7) (protein, UniProt P18031 1-435, looked up, variant C215S)
Tyrosine-protein phosphatase …: MEMEKEFEQIDKSGSWAAIYQDIRHEASDFPCRVAKLPKNKNRNRYRDVSPFDHSRIKLHQEDNDYINASLIKMEEAQRSYILTQGPLPNTCGHFWEMVWEQKSRGVVMLNRVMEKGSLKCAQYWPQKEEKEMIFEDTNLKLTLISEDIKSYYTVRQLELENLTTQETREILHFHYTTWPDFGVPESPASFLNFLFKVRESGSLSPEHGPVVVHSSAGIGRSGTFCLADTCLLLMDKRKDPSSVDIKKVLLEMRKFRMGLIQTADQLRFSYLAVIEGAKFIMGDSSVQDQWKELSHEDLEPPPEHIPPPPRPPKRILEPHNGKCREFFPNHQWVKEETQEDKDCPIKEEKGSPLNAAPYGIESMSQDTEVRSRVVGGSLRGAQAASPAKGEPSLPEKDEDHALSYWKPFLVNMCVATVLTAGAYLCYRFLFNSNT
modifications: FLAG tag
phosphatase activity [7]: not to have any phosphatase activity
